This is an account of results in patent publication US20260028409A1 (Bristol-Myers Squibb, published 2026).

Experiment [1] addresses T1, human C-C Motif Chemokine Receptor 8 (hCCR8) (human, UniProt P51685 1-355).
T1 construct: also called human CCR8
In words: FACS on hCCR8-overexpressing Raji cells, fluorescent secondary Ab. The method, then:
Four of the 6 mAbs bound to the hCCR8-expressing cells with an EC₅₀ below 1 nM (FIG. 2A; see Table 1) whereas no nonspecific binding was observed on the parental Raji cells (FIG. 2B).
FACS was used to evaluate the binding specificity of Abs binding to CCR8. […] Unbound dye was washed away and cells were plated into 96-well round bottom plates at a concentration of 5×10⁵ cells per well in FACS staining buffer (PBS w/o Ca/Mg, 2 mM EDTA, 0.2% BSA). Serial dilutions of mAbs that bind to an epitope other than an N-terminal epitope of CCR8 were added, starting at a concentration of 20 nM, and incubated on ice for 30 min. Unbound Abs were washed off and a detection secondary Ab was added and incubated for 30 min on ice. Additional washes were performed and Ab binding affinities were determined by measuring the fluorescence intensities of the secondary Abs on a LSRFortessa X-20 cytometer (BD Biosciences).

Experiment [2] addresses T2, BSA-conjugated peptide corresponding to the N-terminal 35 amino acid residues of hCCR8 (human, two sulfated tyrosine residues (positions not stated for this peptide); conjugated to bovine serum albumin (BSA)).
T2 construct: Coated at 2 ug/ml on ELISA plates; also called BSA-conjugated CCR8 N-terminal peptide; sulfated N-terminal peptide of CCR8 conjugated to BSA
The experiment is described as follows: ELISA, hybridoma supernatant on plate-coated BSA-conjugated sulfated N-terminal peptide (2 ug/ml). The protocol:
To broadly characterize the epitopes of confirmed CCR8-specific Abs, hybridoma culture supernatants were screened by ELISA to measure binding to hCCR8 N-terminal peptides. Briefly, a BSA-conjugated peptide corresponding to the N-terminal 35 amino acid residues of hCCR8 (SEQ ID NO: 74; 2 μg/ml) representing the properly sulfated hCCR8 N-terminus was coated onto high-binding 96-well plates (Corning, Corning, NY) overnight at 4° C. Plates were blocked with BSA and washed, then 100 μl of culture supernatant were added for 30-60 min on a plate shaker. After washing, an appropriate anti-Fc secondary Ab conjugated to horseradish peroxidase (HRP) was added and left for 30-60 min. The plates were developed with ABTS or HRP substrate (SurModics, Eden Prairie, MN), and absorbance was measured at 405 or 650 nm on a Sunrise microplate reader (TECAN; Mannedorf, Switzerland).

Experiment [3] addresses T1, human C-C Motif Chemokine Receptor 8 …. The experiment is described as follows: % receptor occupancy against 4A19 concentration, flow cytometry on CCR8^+ Tregs in healthy donor whole blood; one of the two RO formats (direct/total or indirect/total). The protocol: (§1) A head-to-head comparison of the two distinct RO assay formats was performed. Whole blood samples (180 μl) were pre-treated with various concentrations of the therapeutic mAb, mAb 4A19 (WO 2021/194942), mimicking different 4A19 dose treatment levels in subjects in the dose escalation arm of a Phase I clinical study (NCT04895709), and pre-incubated for 1 h at 37° C. Aliquots of the treated samples were transferred to 4° C. for periods of 24, 48 and 72h for specimen stability experiments.
(§2) After pre-incubation, tubes containing background samples were treated with a saturating concentration ([…]) of mAb 4A19, while other tubes (containing free or bound or FMO [fluorescence minus one] samples) were treated with PBS (equal volume as mAb 4A19) for 30 min at room temperature (RT). […]

For experiment [4] the target is unchanged. In words: cell-based or functional assay.
Experiment [5] has the same target. The experiment is described as follows: % receptor occupancy against 4A19 concentration, flow cytometry on CCR8^+ Tregs in healthy donor whole blood; the other of the two RO formats (direct/total or indirect/total). The method, then: as §1, §2

T1 sequence (P51685 whole entry): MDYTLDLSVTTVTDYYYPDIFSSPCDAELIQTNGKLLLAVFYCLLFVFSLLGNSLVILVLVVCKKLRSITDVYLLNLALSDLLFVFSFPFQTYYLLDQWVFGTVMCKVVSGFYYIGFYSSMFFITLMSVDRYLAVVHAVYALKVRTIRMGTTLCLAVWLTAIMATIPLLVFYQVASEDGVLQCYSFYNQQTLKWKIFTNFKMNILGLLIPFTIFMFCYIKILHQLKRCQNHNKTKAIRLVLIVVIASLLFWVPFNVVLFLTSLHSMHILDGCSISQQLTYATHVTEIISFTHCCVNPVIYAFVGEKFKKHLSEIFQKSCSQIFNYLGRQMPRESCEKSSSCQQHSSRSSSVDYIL
T2 sequence (peptide, as listed by the source): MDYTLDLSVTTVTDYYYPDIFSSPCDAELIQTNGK

B1: 21C17 mIgG2a (antibody, V domains shown)
VH: VVQLQQSGPVLVKPGASVKMSCAASGYTFTDNYINWVKQRHGKSLEWIGVINPYNGLTAYDQNFKGKATLTVDKSSSTAYMALNSLTSEASAVYYCARRYGGTPVRYFDVWGTGTTVTVSS
VL: DVVLTQTPLTLSVTIGQPASISCKSSQSLLDSSGKTYLNWLLQRPGQSPKRLIYLVSKLDSGVPDRFSGSGSGTDFTLKFSRVEAEDLGVYYCWQATHFPWSFGGGSKLEVKR
notes: Used unlabeled or conjugated to BV421; also called mAb 21C17; 21C17-mG2a
B1 came in with an EC50 in experiment [1] of 0.0807 nM. Besides, the binding result in experiment [2] is “no binding”.

B2: 22B13 mIgG2a (antibody, V domains shown)
VH: B1 VH
VL: DIQMTQTASSLSASLGARVTISCRASQDISNYLNWYQQKPDGTFELLIYYTSRLHSGVPSRFSGSGSGTDYSLTITNLEQEDIATYFCQQGETLPWTFGGGTKLEIKR
notes: also called 22B13-mG2a
Turning to B2, the EC50 in experiment [1] stood at 0.0815 nM. Moreover, the binding result in experiment [2] is given as “no binding”.

B3: 23A14 hIgG1 (antibody, V domains shown)
VH: QVQLVESGGGVVQPGRSLRLSCAVSGLTFSSYAMHWVRQAPGKGLEWVAVISYDGNKKYNADSVKGRFTISRDNSKNTLYLQMNSLRAEDTAVYYCARAEGKGDYWGQGTLVTVSS
VL: EIVLTQSPATLSLSPGERATLSCRASQSVSSYLVWYQQKPGQAPRLLIYDASNRATGIPARFSGSGSGTDFTLTISSLEPEDFAVYYCQQRSNWPRTFGQGTKVEIKR
notes: Tested as hIgG1; also called 23A14-hG1
In turn, B3 had a 50% effective concentration (EC50) in experiment [1] of 0.112 nM. The binding result in experiment [2] is on record as “no binding”.

B4: mAb 4A19 (antibody, human IgG1, kappa, V domains shown)
VH: QVQLVQSGAEVKKPGASVKVSCKASGYTFTDSEMHWVRQATGQGLEWMGAIQPETGGTAYNQKFKARVTMTRDTSISTAYMELSSLRSEDTAVYYCARRRRNFDYWGQGTLVTVSS
VL: DIVMTQTPLSLSVTPGQPASISCRSSQSLFHSSGNTYLHWYLQKPGQPPQLLIYKVSNRFSGVPDRFSGSGSGTDFTLKISRVEAEDVGVYYCSQSTHVPFTFGQGTKLEIKR
notes: Therapeutic anti-hCCR8 mAb of WO 2021/194942; also called therapeutic anti-CCR8 mAb 4A19; A419
On to B4, for which, in experiment [3], the EC50 amounted to 0.022 nM. In experiment [4], the “Maximum Depletion (%) of CCR8^+ Tregs Relative to KLH Isotype Control; Endometrial cancer” value is 69%; the “Maximum Depletion (%) of CCR8^+ Tregs Relative to KLH Isotype Control; Head and neck squamous cell carcinoma” value came out at 25%. Also, a half-maximal effect in experiment [5] (EC50) was put at 0.023 nM.
